# From patent US20230382979A1 (ADAPTIVE BIOTECHNOLOGIES, published 2023)
# Columns and labels:
# [1] = biological target: SARS-CoV-2 spike protein, B1.1.7 (alpha variant), borne on lentiviral pseudovirus (SARS-CoV-2, B1.1.7); experiment: cell-based or functional assay
# [2] = biological target: SARS-CoV-2 spike protein, B1.351 (beta variant), borne on lentiviral pseudovirus (SARS-CoV-2, B1.351); experiment: cell-based or functional assay
# [3] = biological target: T1, Receptor-binding domain (RBD) of the SARS-CoV-2 spike protein, WA01/2020 strain (SARS-CoV-2, WA01/2020 strain, UniProt P0DTC2 319-541); experiment: ELISA, antibody blocks RBD binding to human ACE2
# [4] = biological target: T2, SARS-CoV-2 spike protein on live virus, strain USA-WA1/2020 (SARS-CoV-2, WA01/2020 strain, UniProt P0DTC2 14-1273); experiment: cell-based or functional assay
# [5] = biological target: T1, Receptor-binding domain (RBD) of the …; experiment: SPR (Biacore 8K), antigen immobilized, antibody injected
# [6] = biological target: T2, SARS-CoV-2 spike protein on live virus, …; experiment: cell-based or functional assay; remark: listed apart in the source
# [7] = biological target: SARS-CoV-2 spike protein on live virus, B1.351 (beta variant) (SARS-CoV-2, B1.351); experiment: cell-based or functional assay
# [8] = biological target: T1, Receptor-binding domain (RBD) of the …; experiment: dose-response ELISA on coated antigen
# [9] = biological target: T1, Receptor-binding domain (RBD) of the …; experiment: ELISA, antibody at 0.1 ug/mL
# [10] = biological target: T1, Receptor-binding domain (RBD) of the …; experiment: ELISA screening, antibody concentration not given
Binder,"Pseudo Neut, B1.1.7 IC50 (pM) [1]","Pseudo Neut, B1.351 IC50 (pM) [2]",IC50 [3],"IC50, live virus micro-neutralization WA1/2020 [4]",Kd [5],"Live Neut, WA1/2020 IC50 (pM) [6]","Live Neut, B1.351 IC50 (pM) [7]",EC50 [8],binding result [9],binding result [10]
"antibody 3995 (antibody, V domains shown) VH: EVQLVQSGAEVKKPGSSVKVSCKASGGTFSMHTIRWVRQAPGQGLEWMGRIIPMLGIVNYAQKFQGRVTISADKSTSTAYMELSSLTSEDTAMYYCAKGSHDVFDIWGQGTMVTVSS VL: not shown",667 pM,2830 pM,0.692 nM,0.041 nM,0.057 nM,51 pM,135 pM,0.021 nM,,
"antibody 2794 (antibody, V domains shown) VH: QVQLVQSGAEVKKPGSSLKVSCKASGGTFNNFAISWVRQAPGQGPEWMGRINPILSAAKYAQKFQGRLTITADKSTTTAYMELSSLRSEDTAVYYCAPTGTGESWWFDPWGQGTLVTVSS VL: QSVLTQPPSASGTPGQRVTISCSGSSSNIGTNYVYWYQQLPGTAPKVLIYGNNQRPSGVPDRFSGSKSGSSASLAISGLRSEDEADYYCAAWDDSLSGPVFGGGTKLTVL",148 pM,428 pM,0.137 nM,0.055 nM,0.232 nM,17 pM,,0.022 nM,,
"antibody 2892 (antibody, V domains shown) VH: QVQLVQSGAEVKKPGSSVKVSCKASGDAFISYAISWVRQAPGQGLEWMGGIIPIFGTANYAQKFQGRVTISADESTSTAYMELSRLRSEDTAVYYCARGGPEPYGSGSGYTPRYNWFDPWGQGTLVTVSS VL: QSALTQPRSVSGSPGQSVTISCTGTSSDVGGYNYVSWYQQHPGKAPKFMIYDVNRRPSGVPDRFSGSKSGNTASLTISGLQAEDEADYYCCSYAGTYTWVFGGGTKLTVL",~13 pM,125 pM,0.762 nM,0.082 nM,0.005 nM,10 pM,403 pM,0.089 nM,,
"antibody 3086 (antibody, V domains shown) VH: QVQLQESGPGLVKPSETLSLTCTVSGGSISGHYWSWIRQPPGKGLEWIGYIYYSGSTNYNPSLKSRVTISVDTSVNQFSLKLSSVTAADTAVYYCARQEARDAVGNYFFDSWGQGTLVTVSS VL: QSALTQPASVSGSPGQSITISCSGTSSDIGSYDLVSWYQQHPGKAPKLLIYDVTKRPSGVSHRFSGSKSGNTASLTISGLQGEDEADYYCCSYVHFSTWVFGGGTKLTVL",71 pM,115 pM,0.562 nM,0.062 nM,0.242 nM,7 pM,210 pM,0.03 nM,,
"antibody 1238 (antibody, V domains shown) VH: QVQLVQSGSELKKPGASVKVSCKASGYTFTNYGMNWVRQAPGQGLEWMGWINTNTGNPTNAQGFTGRFVFSLDTSVSTAYLQINSLKGEDTAVYYCARVADTGEMDVWGQGTTVTVSS VL: SYELTQPPSVSVSPGQTARITCSGDALPKQYAYWYQQKPGQAPVLVIYKDSERPSGIPERFSGSSSGTTVTLTISGVQAEDEADYYCQSADSSGSYNWVFGGGTKLTIL",,,,,,400 pM,,,no binding (tested: 0.1 ug/mL),
"antibody 2019 (antibody, V domains shown) VH: QVQLVESGGGVVQPGGSLSLSCAASGLSFSSYGMHWVRQAPGKGLEWVAFIRYDVSNKYYADSVKGRFTISRDNSKNTLYLQMNSLRVEDTAVYYCATWAPLDDGMDVWGQGTTVTVSS VL: SYELTQPPSVSVSPGQTARITCSGDALPKQYAYWYQQKPGQAPVLVIYKDTERPSGIPERFSGSSSGTTVTLTISGVQAEDEADYYCQSGDSSGTFYVVFGGGTKLTVL",,,,,,107 pM,,,no binding (tested: 0.1 ug/mL),
"antibody 2564 (antibody, V domains shown) VH: QVQLVQSGAEVKKPGSSVRVSCKASGGTFISYTFNWVRQAPGQGLEWMGRIIPIFGIVNYAQKFQGRVTIAADKSTSTAYMELSSLRSEDTAMYYCATATVDYDSGEEQSSFDPWGQGTLVTVSS VL: EIVLTQSPGTLSLSPGERATLSCRASQSVSSSYLAWYQQKAGQTPRLLIYAASSRATGVPDRFSGSGSGTDFTLTISRLEAEDFAVYYCQQSWTFGQGTKVEIK",33 pM,196 pM,0.776 nM,0.0226 nM,0.012 nM,7 pM,121 pM,0.023 nM,,
"antibody 4042 (antibody, V domains shown) VH: QITLKESGPTLVKPTQTLTLTCTFSGFSLSSGGVGVGWIRQPPGKALEWLALIYWDDDKRYRPSLKSRLTITRDTSTNQVVLTMTNMDPVDTATYFCARHQIATVFDHWGQGTLVTVSS VL: QSALTQPASVSGSPGQSITISCTGTSSDVGGYNYVSWYQQHPGKAPKLMIYEVSNRPSGVSSRFSGSKSGNTASLTISGLQAEDEADYYCSSYTRSSPLVAFGGGTKVTVL",200 pM,948 pM,1.09 nM,0.039 nM,0.036 nM,15 pM,140 pM,0.021 nM,,
"antibody 4441 (antibody, V domains shown) VH: EVQLVESGGGLVQPGRSLRLSCAASGLTFEDYAMHWVRQPPGKGLEWVSGVSWNSGTIGYADSVKGRFTISRDNAKNSLYLHMRSLGAEDTAMYYCAKDMGGRFSFFSLENDAFDIWGQGTMVIVSS VL: SYELTQPPSVSVSPGQTARITCSGDALPKQSTYWYQQKPGQAPVLVIYKDIERPSGIPERFSGSSSGTTVTLTISGVQAEDEADYYCQSADSSDTYVFGTGTKVTVL",~13 pM,2320 pM,1.02 nM,0.058 nM,0.022 nM,85 pM,,0.05 nM,,
"antibody 2024 (antibody, V domains shown) VH: QVQLVQSGAEVKKPGASVKVSCKVSGYTLIELSMHWVRQAPGKGLEWMGGFDPEEGETIYAQKFQGRVTMTEDTSTDTAYMELSSLRSEDTAVYYCTTSPPVGATGAWFDPWGQGTLVTVSA VL: SYVLTQPPSVSVAPGKTARITCGGNNIGSKSVHWYQQKPGQAPVLVVYDDSDRPSGIPERFSGSNSGNTATLTISGLQAEDEADYYCSSYTSSSTVVFGGGTKLTVL",,,,,,95 pM,,,no binding (tested: 0.1 ug/mL),
"antibody 3091 (antibody, V domains shown) VH: QMQLVQSGPEVKKPGTSVKVSCKASGFTFSSSAVQWVRQARGQGLEWIGWIVVGSGNANYAQKLQERVSITRDMSTSTAYMELSSLRPEDTAVYYCAAPHCSRTICHDGFDMWGQGTMVTVSS VL: EIVLTQSPGTLSLSPGERATLSCRASQSVRSSYLAWYQQKPGQAPRLLMFVASSRATGIPDRFSGSGSGTDFTLTISRLEPEDFAVYYCQQYDTSPWTFGQGTKVEIK",~13 pM,78 pM,0.56 nM,0.055 nM,0.004 nM,8 pM,172 pM,0.03 nM,,
"antibody 980 (antibody, V domains shown) VH: QVQLVESGGGVVQPGRSLRLSCAASGFTFSRYGMHWVRQAPGKGLEWVALISSGGSNKYYADSVKGRFTISRDNSKNTLYLEMNSLRAEDTAVYYCAKDAIYDYIWGAYRENWFDPWGQGTLVTVSS VL: DIQMTQSPSSLSASVGDRVTITCRASQSISNYLNWYQQKPGKAPNLLIYAASSLQSGVPSRFSGSGSGTDFTLTISSLQPEDFATYYCQQTSSPPLTFGQGTKVEIK",1670 pM,1740 pM,0.86 nM,0.0082 nM,0.87 nM,25 pM,83 pM,0.023 nM,,
"antibody 1872 (antibody, V domains shown) VH: EVQLVESGGGLVKPGGSLRLSCAASGFSFSLYTMNWVRQAPGKGLEWVSYISSSSSYRYYADSVKGRFSVSRDNAKNALYLQMNGLRAEDTAVYYCARDGYCPRGVCTYYGMDVWGQGTTVTVSA VL: EIVMTQSPATLSVSPGERATLSCRASQSVGSRLAWYQQKPGQAPRLLIYDATIRATGIPARFSGSGSGTDFTLTISGLQSEDFAVYYCQRYNNWPPAYTFGQGTKLEIK",130 pM,75 pM,,,,,,,,no binding (tested: not printed)
